Test [1] deals with T1, His-tagged ILT4 protein extracellular domain: ILT4-His (human, UniProt Q8N423 22-460).
T1 construct: Expressed in 293 cells; also called human ILT4-His protein
The test can be described thus: ELISA, coated ILT4-His 1 µg/mL; Assay 2. A general note: In an ELISA, binding on a coated surface is turned into a signal by an enzyme label.

Test [2] addresses T1, His-tagged ILT4 protein extracellular …. The test can be described thus: SPR (Biacore), antibody captured on Protein A chip, ILT4-His as analyte, 1:1 model. A general note: Surface plasmon resonance follows binding to a sensor surface in real time, without labels.
Test [3] has the same target. The experiment in a line: ELISA, coated ILT4-His 1 µg/mL; Assay 5.
The target is the same in test [4]. The experiment in a line: screening of chimeric antibodies (ILT4 protein binding, cell binding, ILT4/HLA-G blocking).

Residue numbers refer to the chain shown, from its start.

Usually EC50 stands for the concentration giving half of the maximal effect. Usually Kd stands for the equilibrium constant for the complex coming apart. Usually koff stands for the rate constant with which the complex falls apart. High values mean fast dissociation, low ones slow dissociation. Broadly, the kon is the second-order rate constant of association. High values mean faster complex formation, low ones slower complex formation.

T1 sequence (Q8N423 other isoform, or with tags, fused parts or gaps limits assumed): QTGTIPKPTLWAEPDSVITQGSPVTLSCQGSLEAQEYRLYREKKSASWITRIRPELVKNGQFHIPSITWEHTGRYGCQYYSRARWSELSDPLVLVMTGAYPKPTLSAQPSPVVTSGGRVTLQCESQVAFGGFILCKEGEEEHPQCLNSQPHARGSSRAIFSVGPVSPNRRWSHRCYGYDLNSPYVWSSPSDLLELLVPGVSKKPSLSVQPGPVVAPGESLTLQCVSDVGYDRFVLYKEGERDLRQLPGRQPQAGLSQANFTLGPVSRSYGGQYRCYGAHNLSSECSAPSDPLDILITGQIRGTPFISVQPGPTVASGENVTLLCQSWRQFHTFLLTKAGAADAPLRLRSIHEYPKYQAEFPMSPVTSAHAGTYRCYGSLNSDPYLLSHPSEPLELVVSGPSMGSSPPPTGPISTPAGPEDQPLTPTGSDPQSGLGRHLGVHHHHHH

B1: chimeric antibody ChP2-E11 (antibody, human IgG4 S228P, kappa, F234A L235A, V domains shown)
VH: QVQLQQSGPELVKPGASVKISCKASAYTFTDYYINWVKQRPGQGLEWIGWIFPGSGSTYYNEKFKGKATLTVDKSSSTAYMLVSSLTSEDSAVYFCARSGTLVAPYAMDYWGQGTSVTVSS
VL: SIVMTQTPKFLLVSAGDRVTITCKASQSVSNDVAWYQQKPGQSPKLLIYYTSNRYTGVPDRFTGSGYGTDFTFTISTVQAEDLAVYFCQQDYSFPLTFGAGTKLEIKR
notes: Murine variable regions with hIgG4(LALA) and CL constant regions; also called M P2-E11
Consider B1, for which, in test [1], the midpoint of the response, the EC50, lay at 0.0428 µg/mL and the Top came to 1.98 absorbance at 450 nm.

B2: humanized antibody huP1-D7 (antibody, human IgG4 S228P, kappa, F234A L235A, V domains shown)
VH: EVQLVQSGAEVKKPGASVKVSCKASGYTFTTYGMNWVRQAPGQGLEWMGWINTYSGVPTYAEDFKGRVTMTTDTSTSTAYMELRSLRSDDTAVYYCARRTDYDGYVMDSWGQGTTVTVSS
VL: DIVMTQSPDSLAVSLGERATINCKSSQSLFYSGNQKNYLAWYQQKPGQSPKLLLYWASTRESGVPDRFSGSGSGTDFTLTISSLQAEDVAVYYCQQYFSYPPTFGGGTKVEIKR
notes: Full chains; also called P1-D7H1L1
In test [2], B2 had a Kd of 3.98 nM, a koff of 0.0103 s⁻¹ and a kon of 2.59e+06 M⁻¹ s⁻¹.

B3: chimeric antibody ChP2-C2 (antibody, human IgG4 S228P, kappa, F234A L235A, V domains shown)
VH: QVQLKQSGPGLVQPSQSLSITCTVSGFSLTSYGVHWVRQSPGKGLEWLGVIWSGGHTDLNAAFISRLSINKDNSKSQVFFKMNSLQGDDTAIYYCARNGYGGCLDYWGQGTTLTVSS
VL: DIVMTQSHKFMSTSVGDRVSITCKAGQDVSIAVAWYQQKPGQSPQLLIYSASYRYTGVPDRFTGSGSGTDFTFAISSVQAEDLAVYYCQQYYSIPPSFGAGTKLEIKR
notes: Murine variable regions with hIgG4(LALA) and CL constant regions; also called M P2-C2
Regarding B3, in test [3], a half-maximal response (EC50) required 0.0493 µg/mL and the Top came to 1.16 absorbance at 450 nm.

B4: chimeric antibody ChP2-C6 (antibody, human IgG4 S228P, kappa, F234A L235A, V domains shown)
VH: EVQLQQSGPELVKPGASVKMSCEASGYTFTDYYIHWVKQSHGESLEWIGYIYPDNGYNGYNQKFKGKATLTVDKSSNTAYMELRSLTSEDSAVYFCTRRGDYSGVHFDYWGQGTALTVSS
VL: DIVLTQSPASLAVSLGQRATISCRASESVNNYGVGFLHWYQQKPGQPPKLLIYRASTLESGIPARFSGSGSRTDFTLTINPVETDDVATYYCQHSYKDPPWTFGGGTKLEIKR
notes: Murine variable regions with hIgG4(LALA) and CL constant regions; also called M P2-C6
As for B4, the binding result in test [4] was “binds”.

B5: chimeric antibody ChP1-F7 (antibody, human IgG4 S228P, kappa, F234A L235A, V domains shown)
VH: DVQLQESGPGLVKPSQSLSLTCSVTGYSITSGYYWNWIRQFPGNKLEWMGYISYDGNNYYNPSLKNRISVTRDTSKNQFFLKLNSVTSEDTATYYCAREDGSYSDYDGFAYWGQGTLVTVSS
VL: DIQMTQSPASLSVSVGETVTITCRANENIYSNLAWYQQKQGKSPQLLVYAATNLADGVSSRFSGSGSGTQYSLRINSLQSEDFGSYYCQQFWGTPYTFGGGTKLEIKR
notes: Murine variable regions with hIgG4(LALA) and CL constant regions; also called M P1-F7
As to B5, the binding result in test [4] is listed as “binds”.

B6: chimeric antibody ChP2-G9 (antibody, human IgG4 S228P, kappa, F234A L235A, V domains shown)
VH: DVQLQESGPGLVKPSQSLSLACSVTGSSITSGYYWNWIRQFPGNKLEWMGYLSYDGSNNYNPSLKNRISITRDTSKSQFFLKLNSVTPEDTATYYCAREGAHYSGTLSWFAYWGQGTLVTVSS
VL: B5 VL with N26S, S59P, R74K, Q90H, G93D
notes: Murine variable regions with hIgG4(LALA) and CL constant regions; also called M P2-G9
As for B6, in test [4], the binding result is listed as “binds”.

B7: chimeric antibody ChP1-G7 (antibody, human IgG4 S228P, kappa, F234A L235A, V domains shown)
VH: DVQLQESGPGLVKPSQSLSLTCSVTGYSITSGYYWNWIRQFPENKLEWMGYISYDGGNNYNPFLKNRISITRDTSKNQFFLNLNSVTIEDTATYYCAREGGSSWEYYGMDYWGQGTSVTVSS
VL: B5 VL with N26S, S31R, K42H, V48L, S59P, R74K, T94S
notes: Murine variable regions with hIgG4(LALA) and CL constant regions; also called M P1-G7
Regarding B7, the binding result in test [4] is listed as “binds”.

B8: chimeric antibody ChP2-F10 (antibody, human IgG4 S228P, kappa, F234A L235A, V domains shown)
VH: DVQLQESGPGLVKPSQSLSLTCSVTGYSIASGYYWNWIRQFPGNKLEWMGYITYDGSNNYNPSLKNRISITRDTSKNQFFLKLNSVTTEDTATYYCAREYSYGSTLSWFAYWGQGTLVTVSS
VL: B5 VL with V13I, N26S, S59P, R74K, Q90H, G93D
notes: Murine variable regions with hIgG4(LALA) and CL constant regions; also called M P2-F10
On to B8, for which, in test [4], the binding result is on record as “binds”.

B9: chimeric antibody ChP2-B9 (antibody, human IgG4 S228P, kappa, F234A L235A, V domains shown)
VH: EVQLQQSGPELVKPGASVKISCKASGYTFTDYFMNWVKLSHGKSLEWIGDINPNNGGTSYNQRFKDKVTLTVDKSSSTAYMELRSLTSDSSAVYFCARNGYYDSNYLSYFDVWGTGTTVTVSS
VL: B5 VL with N26S, A50G, S59P, R74K, Q90H, G93D
notes: Murine variable regions with hIgG4(LALA) and CL constant regions; also called M P2-B9
As for B9, in test [3], the EC50 was found to be 0.0487 µg/mL and the Top was determined as 1.53 absorbance at 450 nm.

B10: chimeric antibody ChP2-E3 (antibody, human IgG4 S228P, kappa, F234A L235A, V domains shown)
VH: EVQLQQSGPELVKPGASVKISCKASGYTFTDYYMNWVKQSHGKSLEWIGDINPNNGGTSYNQKFKGKATLTVDKSSSTAYMELRSLTSEDSTVYYCARGGVTTVVATYWYFDVWGTGTTVTVSS
VL: B5 VL with N26S, L54V, S59P, S65G, R74K, G93D, Y96F, G100S
notes: Murine variable regions with hIgG4(LALA) and CL constant regions; also called M P2-E3
In the case of B10, in test [4], the binding result was “binds”.

B11: chimeric antibody ChP2-C7 (antibody, human IgG4 S228P, kappa, F234A L235A, V domains shown)
VH: EVQLQQSGPELVKPGTSVKMSCKASGYTFTDYSMHWVRQSHGKSLEWIGYFNPNNGDTIYNQKFKGKATLTVNKSSSTAYMELRSLTSDDSAVYYCAREDSVSTNAWDGALDYWGQGTSVTVSS
VL: B5 VL with A25T, N26S, A50G, S59P, R74K, Q90H, G93D, T94I, Y96W, K103T
notes: Murine variable regions with hIgG4(LALA) and CL constant regions; also called M P2-C7
On to B11, for which, in test [4], the binding result was “binds”.

For the origin of these results see patent publication EP4585618A1 (Jiangsu Hengrui Pharmaceuticals Co., Ltd., dated 2025).
